Reference: the RNAGym collection of RNA variant scans (doi:10.1073/pnas.2313332121)

B1: TPR t1 (parent)
chain: GACCAAUCUGCCCUCAGAGCUCGAGAACAUCUUCGGAUGCAGAGGAGGCAGGCUUCGGUGGCGCGAUAGCGCCAACGUCCUCAACCUCCAAUGCAUCCCACCACAUGAUGAUGCCUGAAGAGCCUUGGUUUUUUG

Variants of: B1
Assay: polymerase ribozyme fitness, log enrichment relative to wild type (log ratio); higher = more active; in vitro selection for triplet polymerase activity
How it was run: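 The heterodimeric triplet polymerase ribozyme's subunits were each mutagenized into PCR-built libraries and transcribed. Every library was selected once, in triplicate, by annealing with a biotinylated primer, the partner subunit and triplets, incubating frozen at −7 °C, gel-excising extended constructs, capturing on streptavidin beads and running RT-PCR. Input and output libraries were Illumina-sequenced, with genotypes kept only at ≥10 input reads and ≥1 read per output. Fitness, from inverse-variance-weighted replicate averages, is the base-2 logarithm of genotype enrichment over wild-type enrichment.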
For GACCAUUCUGCCCUAAGAGCUCGAGAACAUCUUCGGAUGCAGAGGAGGCAGGCUUCGGUGGCGCGAUAGCGCCAACGUCCUCAACCUCCAAUGCAUCCCACCACAUGAUGAUACCUGAAGAGCCUUGGUUUUUUG [A6U C15A G113A], the “polymerase ribozyme fitness (log ratio)” value was -4.98.
In the case of GACCAAUCUGCCCUCAGAGCUCGAGAACAUCUUCGGAUGCAGAGGAGGCAGGCUUGGGUGGCCCGAUAGCGCCAACGUCCUCAACCUCCAAUGCAUCCCACCACAUGAUGAUGGCUGAAGAGCCUUGGUUUUUUG [C56G G63C C114G], the “polymerase ribozyme fitness (log ratio)” value is reported as -5.3.
With GACCAAUCUGGCCUCAGUGCUCGAGAACAUCUUCGGAUGCAGAGGAGGCAGGCUUCGGUGGCGCGAUAGCGACAACGUCCUCAACCUCCAUUGCAUCCCACCACAUGAUCAUGCCUGAAGAGCCUUGGUUUUUUG [C11G A18U C72A A91U G110C] the “polymerase ribozyme fitness (log ratio)” value was -5.23.
In the case of GACCAAUCUGCCCUCAGAGCUCGAGAACAUCUUCGGAUGCAGAGGAGGCAGGCUUCGGUGGCGCGAUAGCGCCAACGUCCUCAACCUCCAAUGCAUCCCACCACAUGAGGAUGCCUGAAGAGCCUUGGUUUUUUG [U109G], the “polymerase ribozyme fitness (log ratio)” value is reported as -4.35.
In the case of GACCAAUCUGCCCUAAGAGUUCGAGAACAUCUUCGGAUGCAGAGGAGGCAGGCUUCGGUGGCGCGAUAGCGCCAACGUCCUCAACCUCCAAUGCAUCCCACCACAUGAUGAUGCCUGAAGAGCCUUGGUUUUUUG [C15A C20U], the “polymerase ribozyme fitness (log ratio)” value is reported as -3.39.
In the case of GACCAAUCUGCCCUCAGAGCUCGAGAACAUCUUCGGAUGCAGAGCAGGCAGGCUUCGGUCGCGCGAUAGCGCCAACGUACUCAACCUCCAAUGCAUCCCACCACAUGAUGAUGCCUGAAGAGCCUUGGUUUUUUG [G45C G60C C79A], the “polymerase ribozyme fitness (log ratio)” value is reported as -1.42.
In the case of GACCAAUCUGCCCUCAGAGCUCGAGAACAUCUUCGGAUGCAGAGGAGGCAGGCUUCGGUGGCGCGAUAGCACCAACGUCCUCAACCUCCAAUGCAUCCCACCACAUGAUGAUGCCUAAAGAGCCUUGGUUUUUUG [G71A G117A], the “polymerase ribozyme fitness (log ratio)” value is reported as -1.44.
With GACCAAUCUGUCCUCAGAGCUCGAGAACAUCUUCGGAUGCAGUGGAGGCAGGCUUCGGUGGCGCGAUAGCGCCAACGUCCUCAACCUCCAAUGCAUCCCACCACAUGAUGAUGCCUGAAGAGCCUUGGUUUUUUG [C11U A43U] the “polymerase ribozyme fitness (log ratio)” value was -1.62.
With GACCAAUCUGCCCUCAGAGCUCGAGAACAUCUUCGGAUGCAGAGGAGGCAGGCUUCGGUGGCGCGAUAGCGCCAACUUCCUCAACCUCCAAUGUAUCCCACAACAUGAUGAUGCAUGAAGAGCCUUGGUUUUUUG [G77U C94U C102A C115A] the “polymerase ribozyme fitness (log ratio)” value was -2.01.
With GACCAAUCUGCCUUCAGAGCUCGAGAACAUCUUCGGAUGCAGAGGAGGCAGGCUUCGGUGGCGCGAUAGCGCCAACGUCCUCAACCUCCAAUGCAUCCCACUACAUGAUGAUGCCUUAAGAGCCUUGGUUUUUUG [C13U C102U G117U] the “polymerase ribozyme fitness (log ratio)” value was -3.38.
With GACCAAUCUGCCCUCAGAGCUCGAGAACAUCUUCGGAUGCAGAGGAGGCAGUCUUCGGUGGCGCGAUAGCGCCAAGGUCCUCAACCUCCAAUGCAUUCCACCACAUGAUGAUGCCUGAAGAGCCUUGGUUUUUUG [G52U C76G C97U] the “polymerase ribozyme fitness (log ratio)” value was -2.35.
For GACCAAUCUGCCCUCAGAGCUCGAGAACAUCUUCGGAUGCAGAGGAGGCGGGCUUCGGUGGCGCGAUAGCGCUAACGUCCUCAACCUUCAAUGCAUCCCACCACAUGAUGAUGCCUGAAGAGCAUUGGUUUUUUG [A50G C73U C88U C124A], the “polymerase ribozyme fitness (log ratio)” value was 1.42.
With GACCAAUGUACUCUCAGAGCUCGAGAACAUCUUCAGAUGCAGAGGAGGCAGGCUUCGGUGGCGCGCUAGCGGCAACGUCCUCAACCUCCAAUGCAUCCCACCACAUGAUGAUGCCUGAAGUCCCUUGGUCUUUUG [C8G G10A C12U G35A A66C C72G A121U G122C U130C] the “polymerase ribozyme fitness (log ratio)” value was -7.42.
With GACCAAUCUGCCCUCAGAGCUCGAGAACAUCUUCGGAUGCAGAUGAGGCAGGCUUCGGUGGCGCGAUAGCGCCAACGUCCUUAACCUCAAAUGCAUCCCACCACAUGAUGAUGCCUGAAGAGCAUUGGUUUUUUG [G44U C82U C89A C124A] the “polymerase ribozyme fitness (log ratio)” value was 1.91.
For GACCAAGUUGCCCUCAGAGCUCGAGAACUUCUUCGGAUGAAGAGGAGACAGGCUUCGGUGGCGCGAUAGCGCCAACGUCCUCAACCUCCAAUGCAUCCCACCACAUGAUGAUGCCUGAAGAGCCUUGGUUUUUUG [U7G C8U A29U C40A G48A], the “polymerase ribozyme fitness (log ratio)” value was -2.66.
For GACCAAUCUGCCCUCAGAGCUCGAGAACAUCUUCGGAUGCAGAGGAGGCAGGCUUCGGUGGCGCGAUAGCGUCAACGUCCUCAUCCUCCAAUGCAUCCCAUCACAUGAUGAUGCCUGAAGAGCCUUGGUUUUUUG [C72U A84U C101U], the “polymerase ribozyme fitness (log ratio)” value was -0.839.
In the case of GACCAAUCUGCCCUCAGAGCUCGAGAACAUCUUCGGAUGCAGAGGAGGCAGGCUUCGGUGGCGCGAUAGCGUCAACGGCCUCAACCUCCAAUGCAUCCCACCACAUGAUGAUGCUCGAAGAGCCUUGGUUUUUUG [C72U U78G C115U U116C], the “polymerase ribozyme fitness (log ratio)” value is reported as -2.31.
For GACCAAUCUGCCCUCAAAGCUCGAGAACAUCUUCGGAUGCAGAGGAGGCAGGCUUCGGUGGCGCGAUACCGCCAACGUCCUCAACCUCCAAUGCAUCCCACCACAUGAUGAUGCCUGAAGAGCCUUGGUUUUUUG [G17A G69C], the “polymerase ribozyme fitness (log ratio)” value was -3.95.
With GACCAAUCUGCCCUCAGAGCUCGAGAACAUCUUCGGAUGCAGAGGAGGCAGGCUUCGGUGGCUCGAUAGCGCCAACGUCCUCAACCACCAAUGCAUCCCACCACAUGAUGAUGCCUGAAGAUCCUUGGUUUUUUG [G63U U87A G122U] the “polymerase ribozyme fitness (log ratio)” value was -1.97.
In the case of GACCAAUCUGCCCUCAGAGCUCGAGAACAUCUUCGGAUGCAGAGGAGGCAGGCUUCGGUGGCGCGAUAGCGCCAACGUCCUCAACCUCCAAUGCAUCCCACCACAUGAUGAUGCCUGAAGACCCUUGGUUUUUUG [G122C], the “polymerase ribozyme fitness (log ratio)” value is reported as -2.37.
In the case of GACCAAUCUGCCCUCAGAGCUCGAGAACAUCUUCGGAUGCAGAGGAGGCAGGCUUCGGCCGCGCGAUAGCGCCAACGUCCUCAACCUCCAAUGCAUCCCACCACAUGAUGAUGCCUGAAGAGCCUUGGUUUUUUG [U59C G60C], the “polymerase ribozyme fitness (log ratio)” value is reported as -0.854.
